Experimental data: patent US20250327097A1, “ORGANISMS PRODUCING LESS CROTONIC ACID” (Global Bioenergies, priority 2021, published 2025)
Positions count from the first letter of the chain named. In names and notes the source's numbering stands.

B1: I283T-N285P-N287T-L289C-Q290E-S322T-N388M-K394R-C430A-L432F-L434W-S436N-dG462 (protein)
chain: MFLKSLREQINLLKRQGDLRIINRPVDSYLEAAAIIRRSTETKAPVPLMTNIKGYPGCSIVGGLAALSSNPEYPLSRVAMSLGLSTTASAQSIVQYLIDGLKKTPYLPVEIDSNSAPCKQNILRGEDASLAHFPIPQVHQHDGNRYVNTWGVFIVESPDGQWCNWSIQRVQYLNDRQMIALVFPSQHISDIWEEWVKIGKPMPYALVQGCEPIVPYIAGLPLLERNVNEAEYIGALYGKGIEVVKCETHDLRVPASSEVVIEGYFAITREGVEGPFGEFAGYTPPETSCEPILSITAISWQDDPIWPVVAEGKPVDEYHTCTGIGDAAAIQNVLLTANLPVSFVWVPLYSACHLMIVSINRHWRQTHPDLTSEQLTKKVGDVIHQTRMSIKLPRIVVLDDDVDPADTESLLWALATRIHPERKRYFYESAIFPWLNCYSEEERHNRKGKRVIIDALLPENHGAISSFDYAYPDDIKQRVLMHWETDFSHD
B2: I283T-N285P-N287T-Q290E-S322T-N388M-K394R-H419A-C430A-L432F-L434W-S436N-dG462 (protein)
chain: B1 chain with C289L, H419A
B3: N287V-N388M-K394R-C430N-L432F-L434W-S436N (protein)
chain: B1 chain with T283I, P285N, T287V, C289L, E290Q, T322S, A430N
B4: E224P-I283T-N285P-N287T-Q290E-S322T-N388M-K394R-C430A-L432F-L434W-S436N-dG462 (protein)
chain: B1 chain with E224P, C289L
B5: I283T-N285P-N287T-Q290E-S322T-N388M-K394R-R422D-C430A-L432F-L434W-S436N-dG462 (protein)
chain: B1 chain with C289L, R422D
B6: I35V-Q140L-I283T-N285P-N287T-Q290E-S322T-N388M-K394R-C430A-L432F-L434W-S436N-dG462 (protein)
chain: B1 chain with I35V, Q140L, C289L
B7: I283T-N285P-N287T-Q290E-S322T-N388M-K394R-C430A-L432F-L434W-S436N-H444T-dG462 (protein)
chain: B1 chain with C289L, H444T
B8: N287R-N388M-K394R-C430N-L432F-L434W-S436N (protein)
chain: B1 chain with T283I, P285N, T287R, C289L, E290Q, T322S, A430N
B9: I283T-N285P-N287T-Q290E-S322T-N388M-K394R-C430A-L432F-L434W-S436N-dG462-A463F (protein)
chain: B1 chain with C289L, A463F
B10: E224Q-I283T-N285P-N287T-Q290E-S322T-N388M-K394R-C430A-L432F-L434W-S436N-dG462 (protein)
chain: B1 chain with E224Q, C289L
B11: L222V-I283T-N285P-N287T-Q290E-S322T-N388M-K394R-C430A-L432F-L434W-S436N-dG462 (protein)
chain: B1 chain with L222V, C289L
B12: I283T-N285P-N287T-Q290E-S322T-N388M-K394R-C430A-L432F-L434W-S436N-N460G-dG462 (protein)
chain: B1 chain with C289L, N460G
B13: I283T-N285P-N287T-Q290E-S322T-N388M-K394R-E421W-C430A-L432F-L434W-S436N-dG462 (protein)
chain: B1 chain with C289L, E421W
B14: I283T-N285P-N287T-Q290E-S322T-N388M-K394R-S429V-C430A-L432F-L434W-S436N-dG462 (protein)
chain: B1 chain with C289L, S429V
B15: I283T-N285P-N287T-Q290E-S322T-N388M-K394R-H419P-C430A-L432F-L434W-S436N-dG462 (protein)
chain: B1 chain with C289L, H419P
B16: I283T-N285P-N287T-Q290E-S322T-N388M-K394R-C430A-L432F-L434W-S436N-H444R-dG462 (protein)
chain: B1 chain with C289L, H444R
B17: I283T-N285P-N287T-Q290E-S322T-N388M-K394R-C430A-I431K-L432F-L434W-S436N-dG462 (protein)
chain: B1 chain with C289L, I431K
B18: V227L-I283T-N285P-N287T-Q290E-S322T-N388M-K394R-C430A-L432F-L434W-S436N-dG462 (protein)
chain: B1 chain with V227L, C289L
B19: I283T-N285P-N287T-Q290E-S322T-N388M-K394R-C430A-L432F-L434W-S436N-dG462-A470S (protein)
chain: B1 chain with C289L, A470S
B20: I283T-N285P-N287T-Q290E-S322T-N388M-K394R-E421L-C430A-L432F-L434W-S436N-dG462 (protein)
chain: B1 chain with C289L, E421L
B21: I283T-N285P-N287T-Q290E-S322T-N388M-K394R-C430V-L432F-L434W-S436N-dG462 (protein)
chain: B1 chain with C289L, A430V
B22: I283T-N285P-N287T-Q290E-S322T-N388M-K394R-C430A-L432F-L434W-S436N-dG462-A463V (protein)
chain: B1 chain with C289L, A463V
B23: I283T-N285P-N287T-Q290E-S322T-N388M-K394R-C430A-L432F-L434W-S436N-dG462-Y471F (protein)
chain: B1 chain with C289L, Y471F
B24: I283T-N285P-N287T-Q290E-S322T-Q365T-N388M-K394R-C430A-L432F-L434W-S436N-dG462 (protein)
chain: B1 chain with C289L, Q365T
B25: N287T-N388M-K394R-C430N-L432F-L434W-S436N (protein)
chain: B1 chain with T283I, P285N, C289L, E290Q, T322S, A430N
B26: I283T-N285P-N287T-Q290E-S322T-M355C-N388M-K394R-C430A-L432F-L434W-S436N-dG462 (protein)
chain: B1 chain with C289L, M355C
B27: I283T-N285P-N287T-Q290E-S322T-N388M-K394R-K423G-C430A-L432F-L434W-S436N-dG462 (protein)
chain: B1 chain with C289L, K423G
B28: I283T-N285P-N287T-Q290E-S322T-N388M-K394R-C430A-L432F-L434W-S436N-H444F-dG462 (protein)
chain: B1 chain with C289L, H444F
B29: I283T-N285P-N287T-Q290E-S322T-N388M-K394H-C430A-L432F-L434W-S436N-dG462 (protein)
chain: B1 chain with C289L, R394H
B30: I283T-N285P-N287T-Q290E-S322T-M355T-N388M-K394R-C430A-L432F-L434W-S436N-dG462 (protein)
chain: B1 chain with C289L, M355T
B31: I283T-N285P-E286A-N287T-Q290E-S322T-N388M-K394R-C430A-L432F-L434W-S436N-dG462 (protein)
chain: B1 chain with E286A, C289L
B32: I283T-N285P-N287T-Q290E-S322T-R361K-N388M-K394R-C430A-L432F-L434W-S436N-dG462 (protein)
chain: B1 chain with C289L, R361K
B33: I283T-N285P-N287T-Q290E-S322T-N388S-K394R-C430A-L432F-L434W-S436N-dG462 (protein)
chain: B1 chain with C289L, M388S
B34: I283T-N285P-N287T-Q290E-S322T-M355V-N388M-K394R-C430A-L432F-L434W-S436N-dG462 (protein)
chain: B1 chain with C289L, M355V

tested on: 3-methylcrotonic acid; assay type: biochemical, Yersinia frederiksenii; design: key: “+” representing a low increase in activity; “++++” representing a high increase in activity

Molecule	Activity relative to WT
B1	++++
B2	++++
B3	+
B4	++++
B5	++++
B6	++++
B7	++++
B8	+
B9	++++
B10	++++
B11	++++
B12	++++
B13	++++
B14	++++
B15	++++
B16	++++
B17	++++

Molecule	Activity relative to WT
B18	++++
B19	++++
B20	++++
B21	++++
B22	++++
B23	++++
B24	++++
B25	+
B26	++++
B27	++++
B28	++++
B29	++++
B30	++++
B31	++++
B32	++++
B33	++++
B34	++++
